B1: Protein X (Hepatitis B virus genotype D subtype ayw (isolate France/Tiollais/1979)), P03165 (parent)
chain: MAARLCCQLDPARDVLCLRPVGAESRGRPFSGSLGTLSSPSPSAVPTDHGAHLSLRGLPVCAFSSAGPCALRFTSARRMETTVNAHQILPKVLHKRTLGLSAMSTTDLEAYFKDCLFKDWEELGEEIRLKVFVLGGCRHKLVCAPAPCNFFTSA

Variants of: B1
Settings: with akt1_human AKT1, P31749
Chain of akt1_human AKT1, P31749 (P31749 whole entry): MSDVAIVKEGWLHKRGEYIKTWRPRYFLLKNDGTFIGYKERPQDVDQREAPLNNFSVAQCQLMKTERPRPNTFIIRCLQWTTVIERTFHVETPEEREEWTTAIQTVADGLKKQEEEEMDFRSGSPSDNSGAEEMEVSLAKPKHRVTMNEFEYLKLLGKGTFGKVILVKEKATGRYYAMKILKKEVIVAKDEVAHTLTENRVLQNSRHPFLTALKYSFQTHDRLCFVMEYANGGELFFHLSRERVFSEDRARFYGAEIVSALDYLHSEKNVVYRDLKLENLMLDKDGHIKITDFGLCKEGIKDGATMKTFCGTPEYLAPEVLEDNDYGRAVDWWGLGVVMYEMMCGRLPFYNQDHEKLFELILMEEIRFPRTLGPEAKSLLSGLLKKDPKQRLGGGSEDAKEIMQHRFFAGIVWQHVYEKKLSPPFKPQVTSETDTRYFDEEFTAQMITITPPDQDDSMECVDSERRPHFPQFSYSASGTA
S31A was tested, and the “effect of a mutation on the interaction” value was “disrupting interaction”.
